Laboratory results taken from patent US20180155451A1 (published 2018).
Changes are numbered by the printed parent chain. Names and notes keep the numbering of the source. Read-outs that look alike come from different tables or passages of the source.

T1: FcgRIIa type R extracellular domain with C-terminal His tag (human, UniProt P12318 34-217)
T1 construct: extracellular domain; also called FcgRIIaR; FcgRIIa R; not shown: His tag at the C terminus
T1 sequence (looked up): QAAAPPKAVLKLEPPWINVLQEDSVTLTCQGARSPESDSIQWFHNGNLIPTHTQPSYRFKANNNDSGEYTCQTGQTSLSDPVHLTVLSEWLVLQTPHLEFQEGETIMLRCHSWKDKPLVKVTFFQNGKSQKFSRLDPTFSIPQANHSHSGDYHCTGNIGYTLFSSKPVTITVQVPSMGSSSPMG

T2: FcgRIIa type H extracellular domain with C-terminal His tag (human, UniProt P12318 34-217)
T2 construct: extracellular domain; also called FcgRIIaH; FcgRIIa H; not shown: His tag at the C terminus
T2 sequence (looked up): T1 sequence (looked up) with R134H

T3: FcgRIIb extracellular domain with C-terminal His tag (human, UniProt P31994 43-217)
T3 construct: extracellular domain; Expressed in FreeStyle293 cells; also called FcγRIIb; 2b; not shown: His tag at the C terminus
T3 sequence (looked up): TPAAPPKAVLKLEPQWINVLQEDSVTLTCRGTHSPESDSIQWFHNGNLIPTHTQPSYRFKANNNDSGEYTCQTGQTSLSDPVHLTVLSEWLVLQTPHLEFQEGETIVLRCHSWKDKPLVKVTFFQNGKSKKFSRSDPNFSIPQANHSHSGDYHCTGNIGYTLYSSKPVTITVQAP

B1: IL6R-BP208/IL6R-L (antibody, human IgG1, kappa)
heavy: QVQLQESGPGLVKPSETLSLTCAVSGHSISHDHAWSWVRQPPGEGLEWIGFISYSGITNYNPSLQGRVTISRDNSKNTLYLQMNSLRAEDTAVYYCARSLARTTAMDYWGEGTLVTVSSASTKGPSVFPLAPSSKSTSGGTAALGCLVKDYFPEPVTVSWNSGALTSGVHTFPAVLQSSGLYSLSSVVTVPSSSLGTQTYICNVNHKPSNTKVDKKVEPKSCDKTHTCPPCPAPDLLGDDSVFLFPPKPKDTLMISRTPEVTCVVVDVSDEDGEVKFNWYVDGVEVHNAKTKPREEQYNSTYRVVSVLTVLHQDWLNGKEYKCKVSNKALPRPIEKTISKAKGQPREPQVYTLPPSRDELTKNQVSLTCLVKGFYPSDIAVEWESNGQPENNYKTTPPVLDSDGSFFLYSKLTVDKSRWQQGNVFSCSVMHEALHNHYTQESLSLSP
light: not shown
notes: Homodimer; IL6R-BP208 is IL6R-B3 with E233D, G237D, P238D, H268D, P271G and A330R
B2: IL6R-BP253/IL6R-L (antibody, human IgG1, kappa)
heavy: B1 heavy with D235E, D239G, D240P, S269E, D270H, G273P, L330F, R332A
light: not shown
notes: Homodimer; IL6R-BP253 is IL6R-B3 with S267E and L328F

Legend:
[1] = molecular target: T1, FcgRIIa type R extracellular domain …; assay: SPR (Biacore), antibody captured on chip, soluble FcgR as analyte, kinetic 1:1 fit
Protocol: (§1) The variants were assessed for the binding activity to FcgR Ia, FcgR IIaR, FcgR IIaH, and FcgRIIb according to the method described in Reference Example 8.
(§2) Analysis of interaction between obj ective antibody and the FcγR was carried out using Biacore T100 (GE Healthcare), Biacore T200, Biacore A100, and Biacore 4000. HBS-EP+ (GE Healthcare) was used as the running buffer, and the measurement temperature was set to 25° C. Chips produced by immobilizing the antigen peptide by the amine coupling method to a Series S sensor Chip CM5 (GE Healthcare), chips produced by allowing preliminarily biotinylated antigen peptides to interact with and immobilize onto a Series S Sensor Chip SA (certified) (GE Healthcare), chips produced by immobilizing Protein L (ACTIGEN, BioVision) to Series S Sencor Chip CM5 (GE Healthcare), or chips produced by immobilizing Protein A/G (Thermo Scientific) to Series S Sencor Chip CM5 (GE Healthcare) were used. Antibodies of interest were captured onto these chips, and allowed to interact to each FcγR diluted with running buffer. To regenerate and repeatedly use the chip, the antibodies captured onto the chip were washed off by reacting 10 mM glycine-HCl, pH 1.5.

[2] = molecular target: T4, FcgRIIIa type V extracellular domain with C-terminal His tag (human, UniProt P08637 17-208); assay: SPR (Biacore), antibody captured on chip, soluble FcgR as analyte; too weak for kinetics, KD from steady-state 1:1 equation
T4 construct: extracellular domain; also called FcgRIIIaV; FcgRIIIa V; not shown: His tag at the C terminus
Protocol: (§3) KD can be calculated by substituting the values of Rmax, RI, and C into this equation. The values of RI and C can be determined from the sensorgram of the measurement results and measurement conditions. Rmax was calculated according to the following method.

[3] = molecular target: T2, FcgRIIa type H extracellular domain …; assay: as above
Protocol: as §3

[4] = molecular target: T4, FcgRIIIa type V extracellular domain …; assay: as above; remark: listed apart in the source
Protocol: as §3

[5] = molecular target: T2, FcgRIIa type H extracellular domain …; assay: as above; remark: listed apart in the source
Protocol: as §3

[6] = molecular target: T1, FcgRIIa type R extracellular domain …; assay: SPR (Biacore), antibody captured on chip, soluble FcgR as analyte, kinetic 1:1 fit; remark: listed apart in the source
[7] = molecular target: T1, FcgRIIa type R extracellular domain …; assay: SPR (Biacore); KD of IL6R-B3/IL6R-L for this FcgR divided by KD of the sample
Protocol: as §2

[8] = molecular target: T2, FcgRIIa type H extracellular domain …; assay: as above
Protocol: as §2

[9] = molecular target: T3, FcgRIIb extracellular domain with …; assay: as above
Protocol: as §2

[10] = molecular target: T2, FcgRIIa type H extracellular domain …; assay: SPR (Biacore), antibody captured on chip, soluble FcgR as analyte, kinetic 1:1 fit
Protocol: as §1, §2

[11] = molecular target: T3, FcgRIIb extracellular domain with …; assay: as above
Protocol: as §1, §2

[12] = molecular target: T5, FcgRIa extracellular domain with C-terminal His tag (human, UniProt P12314 16-292); assay: as above
T5 construct: extracellular domain; Expressed in FreeStyle293 cells; also called FcγRIa; not shown: His tag at the C terminus
Protocol: as §1, §2

[13] = molecular target: T3, FcgRIIb extracellular domain with …; assay: SPR (Biacore); KD of the sample for FcgRIIaR divided by its KD for FcgRIIb (selectivity for FcgRIIb)
Protocol: as §2

[14] = molecular target: T1, FcgRIIa type R extracellular domain …; assay: SPR (Biacore); KD of IL6R-B3/IL6R-L for this FcgR divided by KD of the sample; remark: listed apart in the source
Protocol: as §2

[15] = molecular target: T2, FcgRIIa type H extracellular domain …; assay: as above; remark: listed apart in the source
Protocol: as §2

[16] = molecular target: T3, FcgRIIb extracellular domain with …; assay: as above; remark: listed apart in the source
Protocol: as §2

[17] = molecular target: T4, FcgRIIIa type V extracellular domain …; assay: SPR (Biacore), antibody captured on chip, soluble FcgR as analyte, kinetic 1:1 fit
[18] = molecular target: T2, FcgRIIa type H extracellular domain …; assay: as above; remark: listed apart in the source
[19] = molecular target: T3, FcgRIIb extracellular domain with …; assay: as above; remark: listed apart in the source
[20] = molecular target: T5, FcgRIa extracellular domain with …; assay: as above; remark: listed apart in the source

T4 sequence (P08637 17-208 F176V): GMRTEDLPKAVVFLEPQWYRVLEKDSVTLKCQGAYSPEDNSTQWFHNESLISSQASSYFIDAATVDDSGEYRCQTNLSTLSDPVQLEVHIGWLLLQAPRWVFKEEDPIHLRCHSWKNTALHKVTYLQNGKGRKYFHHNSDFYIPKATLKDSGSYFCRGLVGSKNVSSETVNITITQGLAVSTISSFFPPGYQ
T5 sequence (P12314 16-292): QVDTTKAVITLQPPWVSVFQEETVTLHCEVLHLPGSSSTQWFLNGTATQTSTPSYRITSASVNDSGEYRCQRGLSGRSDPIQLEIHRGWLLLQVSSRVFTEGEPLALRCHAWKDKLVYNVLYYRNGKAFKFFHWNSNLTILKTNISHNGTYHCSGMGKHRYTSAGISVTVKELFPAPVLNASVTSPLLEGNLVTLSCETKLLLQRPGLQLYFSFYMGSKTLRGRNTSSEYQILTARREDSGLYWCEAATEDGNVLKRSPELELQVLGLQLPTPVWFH

| Binder | Kd [1] [nM] | Kd [2] [µM] | Kd [3] [µM] | Kd [4] [µM] | Kd [5] [µM] | Kd [6] [nM] | Relative KD [7] [ratio] | Relative KD [8] [ratio] | Relative KD [9] [ratio] | Kd [10] [nM] | Kd [11] [nM] | Kd [12] [nM] | KD(IIaR)/KD(IIb) [13] [ratio] | Relative KD [14] [ratio] | Relative KD [15] [ratio] | Relative KD [16] [ratio] | Kd [17] [nM] | Kd [18] [nM] | Kd [19] [nM] | Kd [20] [nM] |
| --- | --- | --- | --- | --- | --- | --- | --- | --- | --- | --- | --- | --- | --- | --- | --- | --- | --- | --- | --- | --- |
| B1 | 850 | 53 | 8.3 | 53 | 8.3 | 850 | – | – | – | – | – | – | – | – | – | – | – | – | – | – |
| B2 | 2.3 | 7.1 | – | – | – | 2.3 | 480 | 0.9 | 349 | 860 | 8.9 | 0.05 | 0.3 | 480 | 0.9 | 349 | 400 | 860 | 8.9 | 0.05 |
